Drawing on patent US20210317204A1 (ALMAC DISCOVERY, published 2021), this text covers Kd, koff and kon for 21 molecules.

Assay [1] concerns the target T1, human ROR1 extracellular domain-Fc fusion (human, UniProt Q01973 30-406).
T1 construct: extracellular domain; also called hROR1; ROR1-hFc
Description: SPR, hROR1 ECD-Fc on chip.

The target in assay [2] is T1, human ROR1 extracellular domain-Fc …. Kind of assay: SPR. In general terms: In SPR one partner is held on a chip, and binding of the other changes the refractive index at the surface.
The target is the same in assay [3]. Kind of assay: SPR. This is another data set of the same source.
Assay [4] concerns the target T2, cynomolgus serum albumin (cynomolgus).
T2 construct: also called CSA; Cyano
Description: SPR, CSA on chip, pH 5.5.

The target of assay [5] is T2, cynomolgus serum albumin. Description: SPR, CSA on chip, pH 7.4.

T2 sequence (A2V9Z4 25-608): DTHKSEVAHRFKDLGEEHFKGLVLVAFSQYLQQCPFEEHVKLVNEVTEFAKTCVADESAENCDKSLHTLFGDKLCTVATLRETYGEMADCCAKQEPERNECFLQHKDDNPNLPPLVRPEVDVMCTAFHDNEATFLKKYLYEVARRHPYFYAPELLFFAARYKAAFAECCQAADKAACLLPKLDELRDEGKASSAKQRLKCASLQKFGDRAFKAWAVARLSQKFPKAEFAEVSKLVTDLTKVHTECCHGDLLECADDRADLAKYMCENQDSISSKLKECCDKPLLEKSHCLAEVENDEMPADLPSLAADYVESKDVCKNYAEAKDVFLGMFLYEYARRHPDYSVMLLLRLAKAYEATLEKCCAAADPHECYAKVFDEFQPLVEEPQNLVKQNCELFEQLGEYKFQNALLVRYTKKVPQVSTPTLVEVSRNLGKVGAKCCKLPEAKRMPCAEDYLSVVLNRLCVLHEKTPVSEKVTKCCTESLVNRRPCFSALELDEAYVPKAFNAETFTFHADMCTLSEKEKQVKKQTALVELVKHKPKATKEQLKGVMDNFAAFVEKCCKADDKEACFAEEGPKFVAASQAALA

B1: B1 G2 (loop-grafted humanised B1) (VNAR)
VNAR: TRVDQSPSSLSASVGDRVTITCVLTGANYGLASTYWYRKNPGSSNQERISISGRYSESVNKRTMSFTLTISSLQPEDSATYYCRAYPWGAGAPWLVQWYDGAGTKVEIKQ
notes: humanised VNAR
In assay [1], B1 gave a Kd of 45.9 nM, a koff of 0.0079 s⁻¹ and a kon of 185000 M⁻¹ s⁻¹.

B2: B1 humanised V7 (VNAR)
VNAR: ASVDQSPSSASASVGDRLTITCVVTGANYGLAATYWYRKNPGSSNQERISISGRYSESVNKRTMSFTLTISSLQPEDSATYYCKAYPWGAGAPWLVQWYDGAGTKLEVKQ
notes: humanised VNAR; also called B1V7
In assay [1], B2 gave a Kd of 0.77 nM, a koff of 5.54e-05 s⁻¹ and a kon of 77400 M⁻¹ s⁻¹.

B3: B1 G1 (loop-grafted humanised B1) (VNAR)
VNAR: TRVDQSPSSLSASVGDRVTITCVLTGANYGLASTYWYRKNPGSSNKEQISISGRYSESVNKGTKSFTLTISSLQPEDSATYYCRAYPWGAGAPWLVQWYDGAGTKVEIKQ
notes: humanised VNAR
Regarding B3, in assay [1], the affinity, expressed as Kd, was 82.8 nM; the koff was 0.0162 s⁻¹; the kon was 220000 M⁻¹ s⁻¹.

B4: B1 humanised V5 (VNAR)
VNAR: ASVDQSPSSLSASVGDRVTITCVVTGANYGLAATYWYRKNPGSSNQERISISGRYSESVNKRTMSFTLTISSLQPEDSATYYCKAYPWGAGAPWLVQWYDGAGTKVEIKQ
notes: humanised VNAR; also called B1V5
Consider B4, for which, in assay [1], binding was characterised by a dissociation constant (Kd) of 0.74 nM, the koff amounted to 3.85e-05 s⁻¹ and the kon was 52000 M⁻¹ s⁻¹.

B5: P3A1 G1 dimer (VNAR)
chain: TRVDQSPSSLSASVGDRVTITCVLTDTSYGLYSTYWYRKNPGSSNKEQISISGRYSESVNKGTKSFTLTISSLQPEDSATYYCRAREARHPWLRQWYDGAGTKVEIKGGGGSGGGGSGGGGSGGGGSGGGGSTRVDQSPSSLSASVGDRVTITCVLTDTSYGLYSTYWYRKNPGSSNKEQISISGRYSESVNKGTKSFTLTISSLQPEDSATYYCRAREARHPWLRQWYDGAGTKVEIKQASGAHHHHHHGAEFEQKLISEEDLG
notes: humanised VNAR dimer
As to B5, in assay [1], binding was characterised by a dissociation constant (Kd) of 0.43 nM, the koff was 0.00147 s⁻¹ and the kon turned out to be 4.3e+06 M⁻¹ s⁻¹.

B6: P3A1-[G4S]5-P3A1 homodimer with His6Myc tag (VNAR)
chain: TRVDQTPRTATKETGESLTINCVLTDTSYGLYSTSWFRKNPGTTDWERMSIGGRYVESVNKGAKSFSLRIKDLTVADSATYYCKAREARHPWLRQWYDGAGTVLTVNGGGGSGGGGSGGGGSGGGGSGGGGSTRVDQTPRTATKETGESLTINCVLTDTSYGLYSTSWFRKNPGTTDWERMSIGGRYVESVNKGAKSFSLRIKDLTVADSATYYCKAREARHPWLRQWYDGAGTVLTVNQASGAHHHHHHGAEFEQKLISEEDL
notes: genetic fusion of two VNAR domains; also called P3A1 dimer 6xHis myc; P3A1-P3A1
In assay [2], B6 came in with a Kd of 1.61 nM, a koff of 0.00296 s⁻¹ and a kon of 1.86e+06 M⁻¹ s⁻¹. In assay [3], this molecule yielded a Kd of 0.35 nM, a koff of 0.000637 s⁻¹ and a kon of 2.08e+06 M⁻¹ s⁻¹.

B7: D3 humanised EL V2 (VNAR)
VNAR: ASVNQSPSSLSASVGDRVTITCVLTDTSYGLYSTSWFRKNPGTTDWERMSIGGRYVESVNKRAKSFTLTISSLQPEDFATYYCKAQSGMAISTGSGHGYNWYDGAGTKVEIK
notes: also called D3 EL V2
As to B7, in assay [1], binding was characterised by a dissociation constant (Kd) of 18.9 nM and the kon is 1.85e+06 M⁻¹ s⁻¹.

B8: D3 humanised EL V4 (VNAR)
VNAR: ASVNQSPSSLSASVGDRVTITCVLTDTSYGLYSTSWYQQKPGTTDWERMSIGGRYVESVNKRAKSFTLTISSLQPEDFATYYCKAQSGMAISTGSGHGYNWYDGAGTKVEIK
notes: also called D3 EL V4
On to B8, for which, in assay [1], the Kd came out at 58.5 nM, the koff is ~0.0545 s⁻¹ and the on-rate constant (kon) was 1.38e+06 M⁻¹ s⁻¹.

B9: D3 humanised ADV2 (VNAR)
VNAR: TRVDQSPSSLSASVGDRVTITCVLTDTSYGLYSTSWFRKNPGTTDWERMSIGGRYSESVNKGAKSFTLTISSLQPEDSATYYCKAQSGMAISTGSGHGYNWYDGAGTKVEIKQ
notes: also called D3 AD V2
In assay [1], B9 had a Kd of 51.6 nM, a koff of 0.00236 s⁻¹ and a kon of 45800 M⁻¹ s⁻¹.

B10: P3A1 V1 dimer (VNAR)
chain: TRVDQSPSSLSASVGDRVTITCVLTDTSYGLYSTSWFRKNPGTTDWERMSIGGRYVESVNKGAKSFTLTISSLQPEDFATYYCKAREARHPWLRQWYDGAGTKVEIKGGGGSGGGGSGGGGSGGGGSGGGGSTRVDQSPSSLSASVGDRVTITCVLTDTSYGLYSTSWFRKNPGTTDWERMSIGGRYVESVNKGAKSFTLTISSLQPEDFATYYCKAREARHPWLRQWYDGAGTKVEIKQASGAHHHHHHGAEFEQKLISEEDLG
notes: humanised VNAR dimer
Take B10: in assay [1], binding was characterised by a dissociation constant (Kd) of 0.18 nM, the koff came out at 0.000846 s⁻¹ and the kon worked out at 4.78e+06 M⁻¹ s⁻¹.

B11: P3A1 G2 dimer (VNAR)
chain: TRVDQSPSSLSASVGDRVTITCVLTDTSYGLYSTYWYRKNPGTTDWERMSIGGRYSESVNKGAKSFTLTISSLQPEDSATYYCRAREARHPWLRQWYDGAGTKVEIKGGGGSGGGGSGGGGSGGGGSGGGGSTRVDQSPSSLSASVGDRVTITCVLTDTSYGLYSTYWYRKNPGTTDWERMSIGGRYSESVNKGAKSFTLTISSLQPEDSATYYCRAREARHPWLRQWYDGAGTKVEIKQASGAHHHHHHGAEFEQKLISEEDLG
notes: humanised VNAR dimer
Turning to B11, in assay [1], the Kd came out at 0.77 nM, the koff was 0.00119 s⁻¹ and the kon stood at 1.88e+06 M⁻¹ s⁻¹.

B12: P3A1-P3A1-S-mal-vcMMAE (VNAR)
chain: TRVDQTPRTATKETGESLTINCVLTDTSYGLYSTSWFRKNPGTTDWERMSIGGRYVESVNKGAKSFSLRIKDLTVADSATYYCKAREARHPWLRQWYDGAGTVLTVNGGGGSGGGGSGGGGSGGGGSGGGGSTRVDQTPRTATKETGESLTINCVLTDTSYGLYSTSWFRKNPGTTDWERMSIGGRYVESVNKGAKSFSLRIKDLTVADSATYYCKAREARHPWLRQWYDGAGTVLTVNQASGAHHHHHHGAEFEQKLISEEDLG
modifications: chain 1 pos 265 (C-terminal Gly, written G): carboxyl amidated with cysteamine (intein cleavage); its thiol joined by thioether to maleimide MC vc PAB MMAE
As to B12, in assay [2], the Kd is 0.59 nM, the koff was 0.0026 s⁻¹ and the kon came out at 4.96e+06 M⁻¹ s⁻¹.

B13: P3A1-P3A1-Ox-vcMMAE (VNAR)
chain: TRVDQTPRTATKETGESLTINCVLTDTSYGLYSTSWFRKNPGTTDWERMSIGGRYVESVNKGAKSFSLRIKDLTVADSATYYCKAREARHPWLRQWYDGAGTVLTVNGGGGSGGGGSGGGGSGGGGSGGGGSTRVDQTPRTATKETGESLTINCVLTDTSYGLYSTSWFRKNPGTTDWERMSIGGRYVESVNKGAKSFSLRIKDLTVADSATYYCKAREARHPWLRQWYDGAGTVLTVNQASGAHHHHHHGAEFEQKLISEEDLG
modifications: chain 1 pos 265 (C-terminal Gly, written G): carboxyl derivatised with O,O'-1,3-propanediylbishydroxylamine (C-terminal aminoxy), joined by oxime to benzaldehyde PEG2 vc PAB MMAE
notes: linker as for m77
In assay [2], B13 registered a Kd of 1.43 nM, a koff of 0.00277 s⁻¹ and a kon of 2.07e+06 M⁻¹ s⁻¹.

B14: P3A1-P3A1-Ox-MMAE (VNAR)
chain: TRVDQTPRTATKETGESLTINCVLTDTSYGLYSTSWFRKNPGTTDWERMSIGGRYVESVNKGAKSFSLRIKDLTVADSATYYCKAREARHPWLRQWYDGAGTVLTVNGGGGSGGGGSGGGGSGGGGSGGGGSTRVDQTPRTATKETGESLTINCVLTDTSYGLYSTSWFRKNPGTTDWERMSIGGRYVESVNKGAKSFSLRIKDLTVADSATYYCKAREARHPWLRQWYDGAGTVLTVNQASGAHHHHHHGAEFEQKLISEEDLG
modifications: chain 1 pos 265 (C-terminal Gly, written G): carboxyl derivatised with O,O'-1,3-propanediylbishydroxylamine (C-terminal aminoxy), joined by oxime to benzaldehyde PEG4 MMAE (non-cleavable)
notes: linker as for m77
In assay [2], B14 registered a Kd of 0.78 nM, a koff of 0.0032 s⁻¹ and a kon of 4.2e+06 M⁻¹ s⁻¹.

B15: BA11 humanised VNAR (VNAR)
VNAR: TRVDQSPSSLSASVGDRVTITCVLTDTSYPLYSTYWYRKNPGSSNKEQISISGRYSESVNKGTKSFTLTISSLQPEDSATYYCRAMSTNIWTGDGAGTKVEIK
Take B15: the figures for the Kd with cynomolgus serum albumin [4] and in the assay with cynomolgus serum albumin [5] were 1.11 nM and 3.36 nM, respectively.

B16: BA11-oxime-fluorescein (VNAR)
VNAR: TRVDQSPSSLSASVGDRVTITCVLTDTSYPLYSTYWYRKNPGSSNKEQISISGRYSESVNKGTKSFTLTISSLQPEDSATYYCRAMSTNIWTGDGAGTKVEIK
modifications: C-terminal aminoxy joined by oxime to benzaldehyde-peg-fluorescein
In the case of B16, the Kd in the assay with cynomolgus serum albumin [4] stood at 5.54 nM; in the assay with cynomolgus serum albumin [5], 1.75 nM.

B17: BA11 C-terminal cysteine derivative (VNAR)
VNAR: TRVDQSPSSLSASVGDRVTITCVLTDTSYPLYSTYWYRKNPGSSNKEQISISGRYSESVNKGTKSFTLTISSLQPEDSATYYCRAMSTNIWTGDGAGTKVEIK
modifications: additional C-terminal cysteine from cysteine cleavage of the intein fusion
notes: also called BA11-cys
In the assay with cynomolgus serum albumin [5], B17 displayed a Kd of 2.1 nM.

B18: BA11 C-terminal thiol derivative (VNAR)
VNAR: TRVDQSPSSLSASVGDRVTITCVLTDTSYPLYSTYWYRKNPGSSNKEQISISGRYSESVNKGTKSFTLTISSLQPEDSATYYCRAMSTNIWTGDGAGTKVEIK
modifications: C-terminal thiol from cysteamine cleavage of the intein fusion
notes: also called BA11-SH
Turning to B18, the results for the Kd with cynomolgus serum albumin [4] and in the assay with cynomolgus serum albumin [5] were 6.74 nM and 3.41 nM, respectively.

B19: BA11-S-maleimide-peg-fluorescein (VNAR)
VNAR: TRVDQSPSSLSASVGDRVTITCVLTDTSYPLYSTYWYRKNPGSSNKEQISISGRYSESVNKGTKSFTLTISSLQPEDSATYYCRAMSTNIWTGDGAGTKVEIK
modifications: C-terminal thiol joined to maleimide-peg-fluorescein
notes: also called BA11-S-mal-Fl
For B19, the Kd in the assay with cynomolgus serum albumin [4] was 7.01 nM; with cynomolgus serum albumin [5], 2.3 nM.

B20: BA11-cys-maleimide-peg-fluorescein (VNAR)
VNAR: TRVDQSPSSLSASVGDRVTITCVLTDTSYPLYSTYWYRKNPGSSNKEQISISGRYSESVNKGTKSFTLTISSLQPEDSATYYCRAMSTNIWTGDGAGTKVEIK
modifications: C-terminal cysteine joined to maleimide-peg-fluorescein
notes: also called BA11-cys-mal-Fl
In the case of B20, the figures for the Kd in the assay with cynomolgus serum albumin [4] and in the assay with cynomolgus serum albumin [5] were 8.21 nM and 3.68 nM, respectively.

B21: BA11-aminoxy (VNAR)
VNAR: TRVDQSPSSLSASVGDRVTITCVLTDTSYPLYSTYWYRKNPGSSNKEQISISGRYSESVNKGTKSFTLTISSLQPEDSATYYCRAMSTNIWTGDGAGTKVEIK
modifications: C-terminal aminoxy from dioxyamine cleavage of the intein fusion
Take B21: the Kd with cynomolgus serum albumin [5] was determined as 7.97 nM.

The term Kd denotes the constant that tells how readily two partners part at equilibrium. As a reminder, the koff is the rate constant with which the complex falls apart. For orientation: kon means the rate constant with which the complex forms. A lower kon goes with slower complex formation.
